Data on 2 molecules can be found in PMC9792514, “C-type lectin-like receptor (CLEC)-2, the ligand of podoplanin, induces morphological changes in podocytes” (Scientific Reports, 2022).

In one assay the target is Fc protein (control). As to the kind of experiment: native gel or EMSA; Blue Native PAGE of the purified recombinant proteins in aqueous solution. On the technique in general: Mobility shift assays separate free from complexed probe on a gel.
A further assay has as its target T1, mouse podoplanin (PDPN) (mouse (endogenous in primary cultured …, UniProt Q62011 23-172)).
T1 sequence (looked up): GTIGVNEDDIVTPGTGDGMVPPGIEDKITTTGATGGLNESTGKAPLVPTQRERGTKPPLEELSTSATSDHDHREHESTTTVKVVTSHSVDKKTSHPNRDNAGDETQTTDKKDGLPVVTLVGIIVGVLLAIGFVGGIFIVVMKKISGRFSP
As to the kind of experiment: cell-based or functional assay.

Broadly, the stoichiometry N is the number of molecules, sites or subunits per partner or assembly.

Take “Fc protein (control) (domain or fragment)”: the stoichiometry N in the assay with Fc protein (control) came out at 4.

B1: StepTagII-3FLAG-CLEC-2, a fusion of StrepTactin FLAG double tags and the C-terminal extracellular domain of mouse CLEC-2 (51-229) (domain or fragment, UniProt Q9JL99 51-229, looked up)
chain: GIMSVTQQKYLLAEKENLSATLQQLAKKFCQELIRQSEIKTKSTFEHKCSPCATKWRYHGDSCYGFFRRNLTWEESKQYCTEQNATLVKTASQSTLDYIAERITSVRWIGLSRQNSKKDWMWEDSSVLRKNGINLSGNTEENMNCAYLHNGKIHPASCKERHYLICERNAGMTRVDQLL
On to B1, for which the “pERM/ERM ratio by Western blot of glomerular lysate after infusion of FLAG-CLEC-2 (5 ug/g body weight), against controls” value in the assay with mouse podoplanin (PDPN) amounted to 0.65 fold.
